Test results from paper PMC8635308, “Neuropilin 1 regulates bone marrow vascular regeneration and hematopoietic reconstitution” (Nature Communications, 2021).

Experiments:
[1] = target: Mouse NRP1 (Recombinant Mouse Neuropilin-1 Protein, CF) (mouse) (UniProt P97333); test: SPR; Pioneer SensiQ; mouse NRP1 immobilised on a Polycarboxylate High Capacity (PCH) chip in 10 mM sodium acetate pH 5.0 (2307 RU for mouse SEMA3A Fc, 1565 RU for human SEMA3A Fc); SEMA3A-Fc flowed over; running buffer 20 mM HEPES pH 7.5, 150 mM NaCl, 0.005% Tween-20; OneStep kinetics, single concentration (100 nM mouse or 50 nM human SEMA3A Fc), 75 ul/min
[2] = target: T1, Mouse NRP1 (Recombinant Mouse Neuropilin-1 Protein, CF) (mouse, UniProt P97333 22-856); test: as above; conditions: both partners purified
T1 construct: Neuropilin-1, mouse, recombinant soluble protein; also called murine NRP1; mouse NRP1 receptor; source: bought: R&D Systems
T1 sequence (looked up): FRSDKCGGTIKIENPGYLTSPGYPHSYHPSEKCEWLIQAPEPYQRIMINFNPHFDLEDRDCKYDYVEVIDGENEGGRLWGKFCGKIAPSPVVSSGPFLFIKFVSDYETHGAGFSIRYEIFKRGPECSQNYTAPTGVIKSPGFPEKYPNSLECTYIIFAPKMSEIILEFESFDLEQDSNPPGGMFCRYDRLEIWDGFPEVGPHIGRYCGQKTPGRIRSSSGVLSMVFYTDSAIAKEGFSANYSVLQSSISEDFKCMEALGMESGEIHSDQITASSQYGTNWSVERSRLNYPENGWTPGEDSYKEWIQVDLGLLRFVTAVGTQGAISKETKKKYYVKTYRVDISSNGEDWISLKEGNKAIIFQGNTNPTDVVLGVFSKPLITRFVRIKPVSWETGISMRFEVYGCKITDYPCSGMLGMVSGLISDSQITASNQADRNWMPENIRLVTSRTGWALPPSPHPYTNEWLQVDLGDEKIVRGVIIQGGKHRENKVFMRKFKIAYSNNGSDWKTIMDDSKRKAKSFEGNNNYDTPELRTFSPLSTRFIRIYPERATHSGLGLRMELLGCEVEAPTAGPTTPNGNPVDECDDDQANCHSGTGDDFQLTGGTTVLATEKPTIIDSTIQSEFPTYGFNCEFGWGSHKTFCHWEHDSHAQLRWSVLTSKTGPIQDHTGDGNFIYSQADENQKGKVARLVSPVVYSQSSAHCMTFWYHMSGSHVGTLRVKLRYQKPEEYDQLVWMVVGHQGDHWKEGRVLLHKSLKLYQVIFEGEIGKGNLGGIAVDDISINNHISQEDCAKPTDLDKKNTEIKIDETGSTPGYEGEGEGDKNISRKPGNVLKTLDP

In the case of “recombinant human full length SEMA3A Fc (huSEMA3A, Lys26-Val771) (from UniProt Q14563 26-771) (Fc fusion)”, the Kd [1] is reported as 1.8 nM.

B1: recombinant mouse SEMA3A Fc (muSEMA3A, Asn21-Lys747) (Fc fusion, UniProt O08665 21-747, looked up)
chain: NYANGKNNVPRLKLSYKEMLESNNVITFNGLANSSSYHTFLLDEERSRLYVGAKDHIFSFNLVNIKDFQKIVWPVSYTRRDECKWAGKDILKECANFIKVLEAYNQTHLYACGTGAFHPICTYIEVGHHPEDNIFKLQDSHFENGRGKSPYDPKLLTASLLIDGELYSGTAADFMGRDFAIFRTLGHHHPIRTEQHDSRWLNDPRFISAHLIPESDNPEDDKVYFFFRENAIDGEHSGKATHARIGQICKNDFGGHRSLVNKWTTFLKARLICSVPGPNGIDTHFDELQDVFLMNSKDPKNPIVYGVFTTSSNIFKGSAVCMYSMSDVRRVFLGPYAHRDGPNYQWVPYQGRVPYPRPGTCPSKTFGGFDSTKDLPDDVITFARSHPAMYNPVFPINNRPIMIKTDVNYQFTQIVVDRVDAEDGQYDVMFIGTDVGTVLKVVSVPKETWHDLEEILLEEMTVFREPTTISAMELSTKQQQLYIGSTAGVAQLPLHRCDIYGKACAECCLARDPYCAWDGSSCSRYFPTAKRRTRRQDIRNGDPLTHCSDLQHHDNHHGPSLEERIIYGVENSSTFLECSPKSQRALVYWQFQRRNEDRKEEIRMGDHIIRTEQGLLLRSLQKKDSGNYLCHAVEHGFMQTLLKVTLEVIDTEHLEELLHKDDDGDGSKIKEMSSSMTPSQKVWYRDFMQLINHPNLNTMDEFCEQVWKRDRKQRRQRPGHSQGSSNK
notes: Semaphorin 3A, mouse, Asn21-Lys747, truncated at the C-terminus (lacks the RNRR and RAPR stretches); also called Murine SEMA3A Fc; truncated murine SEMA3A; source: bought: R&D Systems
Work on B1 yielded a Kd [2] of ~4.4 nM.
